Results on ten sequences are retold here after the supplement of paper PMC10724198.

For data set [1], the system named is Saccharomyces cerevisiae. The data set can be described thus: protein stability index of tFT-peptide fusion (C-terminal peptide) (PSI (0-1 scale)); higher = more stable (slower turnover). On the procedure:
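MPS profiling in S. cerevisiae of the tFT-X12 degron library: putative degron peptides plus stable controls, 12 aa, fused to the C-terminus of a sfGFP-mCherry timer. Cells are FACS-sorted into 8 mCherry/sfGFP bins and deep-sequenced. PSI runs from 0 (unstable) to 1 (stable). Backgrounds are wild type, das1Δ and doa10Δ at 30 °C, and wild type, das1Δ, cdc34-1 and cdc53-1 at 37 °C; 2-3 technical replicates each.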

Data set [2] concerns Saccharomyces cerevisiae. The data set is described as above. The conditions noted are these: genetic background: wild type; temperature: 30 C.
[3] abbreviates: genetic background: cdc34-1, temperature: 37 C.
The mark [4] stands for this setting: genetic background: cdc53-1, temperature: 37 C.
Where [5] appears, read: genetic background: das1 deletion, temperature: 30 C.
Setting [6] is: genetic background: das1 deletion, temperature: 37 C.
[7] abbreviates: genetic background: doa10 deletion, temperature: 30 C.
[8] abbreviates: genetic background: wild type, temperature: 30 C.
Setting [9] is: genetic background: wild type, temperature: 37 C.

± gives the standard deviation of the averaged measurements.
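Note: PSI is a weighted mean of sequencing reads over stability bins, variants kept only with over 10 reads, mCherry proximal and sfGFP distal, peptide attached via GGGS linker.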

As for ILLHSFFSFYLL, the protein stability index in the data set on Saccharomyces cerevisiae [1] (setting [3]) was determined as 0.484 ± 0.0054; in the data set with Saccharomyces cerevisiae [1] (setting [4]), 0.503 ± 0.0068; in the data set on Saccharomyces cerevisiae [1] (setting [5]), 0.508 ± 0.027; in the data set with Saccharomyces cerevisiae [1] (setting [6]), 0.5933 ± 0.0054; with Saccharomyces cerevisiae [1] (setting [7]), 0.289 ± 0.009; in the data set on Saccharomyces cerevisiae [1] (setting [8]) it was 0.269 ± 0.023. In addition, the protein stability index with Saccharomyces cerevisiae [1] (setting [9]) turned out to be 0.419 ± 0.006; with Saccharomyces cerevisiae [2], 0.30744 ± 1.3e-05.

On to ILLYCVLIDPYS, for which the protein stability index was 0.203 ± 0.008 in the data set with Saccharomyces cerevisiae [1] (setting [3]); 0.2634 ± 0.0013 in the data set with Saccharomyces cerevisiae [1] (setting [4]); 0.221 ± 0.043 with Saccharomyces cerevisiae [1] (setting [5]); 0.352 ± 0.0093 with Saccharomyces cerevisiae [1] (setting [6]); 0.219 ± 0.011 in the data set with Saccharomyces cerevisiae [1] (setting [7]); 0.229 ± 0.025 in the data set on Saccharomyces cerevisiae [1] (setting [8]). The protein stability index turned out to be 0.361 ± 0.057 in the data set on Saccharomyces cerevisiae [1] (setting [9]) and 0.344 ± 0.032 in the data set on Saccharomyces cerevisiae [2].

Turning to ILVLKFLRLLSA, the protein stability index is 0.525 ± 0.015 in the data set with Saccharomyces cerevisiae [1] (setting [3]); 0.555 ± 0.024 with Saccharomyces cerevisiae [1] (setting [4]); 0.444 ± 0.034 with Saccharomyces cerevisiae [1] (setting [5]); 0.563 ± 0.012 with Saccharomyces cerevisiae [1] (setting [6]); 0.343 ± 0.017 in the data set with Saccharomyces cerevisiae [1] (setting [7]); 0.365 ± 0.028 with Saccharomyces cerevisiae [1] (setting [8]). Besides, the protein stability index worked out at 0.5261 ± 0.0015 with Saccharomyces cerevisiae [1] (setting [9]) and 0.448 ± 0.031 in the data set on Saccharomyces cerevisiae [2].

For the sequence ISPCLVRLWYRI, the protein stability index in the data set with Saccharomyces cerevisiae [1] (setting [3]) is 0.462 ± 0.053; with Saccharomyces cerevisiae [1] (setting [4]), 0.574 ± 0.021; in the data set on Saccharomyces cerevisiae [1] (setting [5]) it was 0.544 ± 0.018; in the data set with Saccharomyces cerevisiae [1] (setting [6]), 0.673 ± 0.019; with Saccharomyces cerevisiae [1] (setting [7]), 0.103 ± 0.028; with Saccharomyces cerevisiae [1] (setting [8]), 0.102 ± 0.037. Besides, the protein stability index with Saccharomyces cerevisiae [1] (setting [9]) was found to be 0.168 ± 0.026; in the data set with Saccharomyces cerevisiae [2], 0.175 ± 0.033.

As for IVCYFFAFSFMW, the protein stability index in the data set on Saccharomyces cerevisiae [1] (setting [3]) was determined as 0.288 ± 0.014; in the data set with Saccharomyces cerevisiae [1] (setting [4]) it was 0.399 ± 0.058; in the data set on Saccharomyces cerevisiae [1] (setting [5]), 0.293 ± 0.028; in the data set with Saccharomyces cerevisiae [1] (setting [6]), 0.462 ± 0.0081; in the data set on Saccharomyces cerevisiae [1] (setting [7]) it was 0.2859 ± 0.0019; in the data set on Saccharomyces cerevisiae [1] (setting [8]) it was 0.288 ± 0.025. Moreover, the protein stability index with Saccharomyces cerevisiae [1] (setting [9]) was determined as 0.425 ± 0.024; in the data set on Saccharomyces cerevisiae [2], 0.362 ± 0.0046.

Turning to IVEVNCILMWIF, the protein stability index came to 0.423 ± 0.024 in the data set on Saccharomyces cerevisiae [1] (setting [3]); 0.489 ± 0.026 in the data set with Saccharomyces cerevisiae [1] (setting [4]); 0.365 ± 0.021 in the data set on Saccharomyces cerevisiae [1] (setting [5]); 0.532 ± 0.029 in the data set with Saccharomyces cerevisiae [1] (setting [6]); 0.345 ± 0.037 in the data set on Saccharomyces cerevisiae [1] (setting [7]); 0.369 ± 0.041 with Saccharomyces cerevisiae [1] (setting [8]). Also, the protein stability index with Saccharomyces cerevisiae [1] (setting [9]) is 0.469 ± 0.044; with Saccharomyces cerevisiae [2] it was 0.4398 ± 0.00029.

For the sequence IVGVLAVLVRPV, the protein stability index is 0.484 ± 0.029 with Saccharomyces cerevisiae [1] (setting [3]); 0.561 ± 0.019 in the data set with Saccharomyces cerevisiae [1] (setting [4]); 0.369 ± 0.03 in the data set with Saccharomyces cerevisiae [1] (setting [5]); 0.5371 ± 0.0051 in the data set on Saccharomyces cerevisiae [1] (setting [6]); 0.34 ± 0.011 with Saccharomyces cerevisiae [1] (setting [7]); 0.376 ± 0.023 in the data set on Saccharomyces cerevisiae [1] (setting [8]). The protein stability index in the data set on Saccharomyces cerevisiae [1] (setting [9]) turned out to be 0.51 ± 0.017; with Saccharomyces cerevisiae [2], 0.466 ± 0.023.

As to IVIFQTAYVVRI, the protein stability index in the data set with Saccharomyces cerevisiae [1] (setting [3]) was determined as 0.159 ± 0.0011; with Saccharomyces cerevisiae [1] (setting [4]), 0.233 ± 0.013; in the data set with Saccharomyces cerevisiae [1] (setting [5]) it was 0.164 ± 0.011; in the data set with Saccharomyces cerevisiae [1] (setting [6]), 0.238 ± 0.012; in the data set with Saccharomyces cerevisiae [1] (setting [7]) it was 0.225 ± 0.034; with Saccharomyces cerevisiae [1] (setting [8]), 0.173 ± 0.0086. In addition, the protein stability index in the data set on Saccharomyces cerevisiae [1] (setting [9]) turned out to be 0.234 ± 0.01; in the data set on Saccharomyces cerevisiae [2] it was 0.213 ± 0.0041.

As for IVVVVRLSPILG, the protein stability index in the data set with Saccharomyces cerevisiae [1] (setting [3]) stood at 0.293 ± 0.016; in the data set on Saccharomyces cerevisiae [1] (setting [4]), 0.397 ± 0.099; in the data set with Saccharomyces cerevisiae [1] (setting [5]), 0.27 ± 0.015; in the data set with Saccharomyces cerevisiae [1] (setting [6]) it was 0.4272 ± 0.003; in the data set with Saccharomyces cerevisiae [1] (setting [7]), 0.228 ± 0.013; with Saccharomyces cerevisiae [1] (setting [8]), 0.274 ± 0.016. Moreover, the protein stability index worked out at 0.401 ± 0.011 with Saccharomyces cerevisiae [1] (setting [9]) and 0.331 ± 0.034 in the data set with Saccharomyces cerevisiae [2].

On to IWIHSVGVECTS, for which the protein stability index in the data set on Saccharomyces cerevisiae [1] (setting [3]) was 0.487 ± 0.011; with Saccharomyces cerevisiae [1] (setting [4]), 0.494 ± 0.033; in the data set with Saccharomyces cerevisiae [1] (setting [5]), 0.359 ± 0.036; in the data set with Saccharomyces cerevisiae [1] (setting [6]) it was 0.544 ± 0.0068; with Saccharomyces cerevisiae [1] (setting [7]), 0.315 ± 0.0044; with Saccharomyces cerevisiae [1] (setting [8]), 0.358 ± 0.032. Moreover, the protein stability index in the data set on Saccharomyces cerevisiae [1] (setting [9]) came to 0.5186 ± 0.005; in the data set on Saccharomyces cerevisiae [2] it was 0.486 ± 0.019.
